Experiment [1] addresses CLIP-170 (cytoplasmic linker protein 170) (UniProt P30622). In words: HA immunoprecipitation, CLIP-170 immunoblot. The following applies: reference: HA-EB1 wild type; sites S40,T154,T206.
The target in experiment [2] is p150glued (UniProt Q14203). Put plainly: HA immunoprecipitation, p150glued immunoblot. The note with it: reference: HA-EB1 wild type; sites S40,T154,T206. In general terms: Immunoblotting shows a protein as a band on a membrane.

“EB1 (end-binding protein 1) (from UniProt Q15691) HA-EB1 3A (S40A/T154A/T206A)”: the “binding against the reference” value in experiment [1] and in experiment [2] was “weaker” throughout.

The record behind these values is paper PMC5354776.
